These results are taken from paper PMC11292656.

The target in this experiment is sVP40Δ43 R214A (Sudan virus) (UniProt Q5XX06). The experiment in a line: SEC.

“sVP40Δ43 R214A (from UniProt Q5XX06 44-326) (domain or fragment)” registered an octameric percentage of total VP40 AUC of 50%.
